Experimental data as given in article PMC4769559 (BMC Veterinary Research, 2016).

Assays:
[1] = target: truncate haemagglutinin-neuraminidase (HN) 49–577 aa of NDV La Sota fused to the yeast GAL4 DNA-BD (Newcastle disease virus, La Sota, UniProt O90340, strain); experiment: two-hybrid; conditions: partners not purified
[2] = target: cell derived HN protein (pCAGGS-HN transfected 293 T cells) (Newcastle disease virus, strain not …, UniProt O90340); experiment: pull-down; conditions: one partner purified
[3] = target: NDV HN glycoprotein in LaSota-infected DF-1 cells (Newcastle disease virus, La Sota, UniProt O90340, strain); experiment: immunostaining of cells or tissue; conditions: one partner purified

B1: VHH1 fused to the Gal4 activation domain (pAD-VHH, pGADT7-Rec) (VHH)
VHH: QVQLVESGGGSVQAGGSLTLSCAASGATDSSSCMGWFRQAPGKEREGVANIDSDGNTNYAESVMGRFTISQDNAKNTLYLQMNTLKPEDTAMYRCAADPGGSWCVFLLARENALDAWGQGTLVTVSS
[1]
  binding result: binds

B2: VHH2 fused to the Gal4 activation domain (pAD-VHH, pGADT7-Rec) (VHH)
VHH: QVQLVESGGGSVQAGGSLKLSCAPPAGYIFSSCAMGWYRQAPGKEHELVSSIAINGTTVYADFVKGRFTIFQDNTKPTLYLQMNNLKTEDTAVYYCAAECTFSDHPYWGQGTLVTVSS
[1]
  binding result: binds

B3: 6 × His-SUMO-VHH6 fusion protein (VHH)
VHH: QVQLVESGGGSVQAGGSLRLSCTASGFTFDDSDMVWYRQAPGNECEVVSYITSDGTTYHADSVKGRFTISQDNAKSTVYLQMNSLKPEDTAVYYCAADLVLESPSCEWSQGTLVTVSS
[2]
  binding result: binds
[3]
  binding result: binds

B4: VHH3 fused to the Gal4 activation domain (pAD-VHH, pGADT7-Rec) (VHH)
VHH: EVQLVESGGGSVQAGGSLRLSCTASGYTRCMGWFRQAPGKEREGVAIVVTGSPYYTDSVKDRFTISLDNAKNTVYLQMNSLKPEDTATYYCAADRSILGCRLFRLYEANYRGQGTLVTVSS
[1]
  binding result: binds

B5: VHH4 fused to the Gal4 activation domain (pAD-VHH, pGADT7-Rec) (VHH)
VHH: QVQLVESGGGSVQAGGPLRLSCAVSGYSYSSVCMAWFRQAPGKEREAVAGIYTGGGNKYYADSVKGRFTISQDNTKNTLYLQMNSLKPEDTAMYYCAADLTVAACVPGRPQLTEEYNIWGQGTLVTVSS
[1]
  binding result: binds

B6: VHH5 fused to the Gal4 activation domain (pAD-VHH, pGADT7-Rec) (VHH)
VHH: QVQLVESGGGLVQPGGSLKLSCAASGFTFSTNAMSWFRPAPGKERKWVSAIDAGGGNTYYDDSMKGRFTISKDNAKNTLYLQLNSLKSEDTAMYYCAKDPATVPTNRGQGTLVTVSS
[1]
  binding result: binds

B7: VHH6 fused to the Gal4 activation domain (pAD-VHH, pGADT7-Rec) (VHH)
VHH: B3 VHH
[1]
  binding result: binds

B8: VHH7 fused to the Gal4 activation domain (pAD-VHH, pGADT7-Rec) (VHH)
VHH: QVQLVESGGGLVQPGGSLRLSCAASGFAFSIYAMSWVRQAPGKGLEWVSAINSGGGSEYYADSVKGRFTISRDNAKNTLYLQLNSLKTEDTAMYYCAKSTSDCSYSDPWCYALADFGYWGQGTQVTVSS
[1]
  binding result: binds
